Measured values reported in article doi:10.1101/2020.08.17.253781 (2020).

Target: GST-LOV2GIVe (L) (Avena sativa | , UniProt O49003)

B1: His-Gαi3 (natural protein)
chain: MGCTLSAEDKAAVERSKMIDRNLREDGEKAAKEVKLLLLGAGESGKSTIVKQMKIIHEDGYSEDECKQYKVVVYSNTIQSIIAIIRAMGRLKIDFGEAARADDARQLFVLAGSAEEGVMTSELAGVIKRLWRDGGVQACFSRSREYQLNDSASYYLNDLDRISQTNYIPTQQDVLRTRVKTTGIVETHFTFKELYFKMFDVGGQRSERKKWIHCFEGVTAIIFCVALSDYDLVLAEDEEMNRMHESMKLFDSICNNKWFTDTSIILFLNKKDLFEEKIKRSPLTICYPEYTGSNTYEEAAAYIQCQFEDLNRRKDTKEVYTHFTCATDTKNVQFVFDAVTDVIIKNNLKECGLY
- Kd: 270 nM
